In patent publication US9598497B2, “RSPO3 binding agents and uses thereof” (OncoMed Pharmaceuticals, Inc., priority 2012, dated 2017):

T1: human LGR5 (Homo sapiens, UniProt O75473)
T1 construct: ligating amino acids 22-564 of human LGR5 to an N-terminal FLAG tag; expressed in transfected cells; host or cells: HEK-293
T1 sequence (O75473 22-564): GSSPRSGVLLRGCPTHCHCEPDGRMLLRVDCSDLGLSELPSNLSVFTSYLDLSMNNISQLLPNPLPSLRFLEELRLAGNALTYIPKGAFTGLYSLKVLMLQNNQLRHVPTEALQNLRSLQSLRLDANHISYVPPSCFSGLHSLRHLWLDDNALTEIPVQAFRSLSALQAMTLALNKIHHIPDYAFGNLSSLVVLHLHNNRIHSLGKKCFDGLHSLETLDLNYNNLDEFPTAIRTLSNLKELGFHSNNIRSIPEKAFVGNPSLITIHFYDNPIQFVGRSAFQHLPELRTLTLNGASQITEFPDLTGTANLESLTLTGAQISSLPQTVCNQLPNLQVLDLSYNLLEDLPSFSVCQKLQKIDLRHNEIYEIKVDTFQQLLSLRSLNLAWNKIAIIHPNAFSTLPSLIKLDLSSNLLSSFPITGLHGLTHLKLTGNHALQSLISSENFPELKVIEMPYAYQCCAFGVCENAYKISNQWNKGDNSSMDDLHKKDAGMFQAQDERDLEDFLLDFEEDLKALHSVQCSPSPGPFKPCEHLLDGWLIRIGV


Columns and labels:
[1] = test system: gene sets characteristic of normal stem cells or cancer stem cells; assay: Microarray gene set enrichment analysis of treated OMP-LU102 tumors; format: in vivo, NOD-SCID mice; settings: RNA from OMP-LU102 tumors after treatment, FIG. 11B
Procedure: RNA was prepared from tumors from each of the four experimental groups following the treatment. Gene expression was characterized by microarray analysis.

human LGR5 = target: T1, human LGR5; assay: FACS binding of RSPO-Fc fusion proteins to LGR5 expressed on HEK-293 cells; settings: 10 μg/ml Fc fusion protein, FIG. 2
From the text: A cell surface LGR5 protein was generated by ligating amino acids 22-564 of human LGR5 to an N-terminal FLAG tag and to the transmembrane domain of CD4 and a C-terminal GFP protein tag using standard recombinant DNA techniques (FLAG-LGR5-CD4TM-GFP). RSPO-Fc constructs were generated using standard recombinant DNA techniques. Specifically, full-length human RSPO1, RSPO2, RSPO3 and RSPO4 were ligated in-frame to a human Fc region and the recombinant RSPO-Fc proteins were expressed in insect cells using baculovirus. The fusion proteins were purified from the insect medium using protein A chromatography.
HEK-293 cells were transiently transfected with the FLAG-LGR5-CD4TM-GFP construct. After 48 hours, transfected cells were suspended in ice cold PBS containing 2% FBS and heparin and incubated on ice in the presence of 10 μg/ml RSPO1-Fc, RSPO2-Fc, RSPO3-Fc, RSPO4-Fc, or FZD8-Fc fusion proteins for 15 minutes. A second incubation with 100 μl PE-conjugated anti-human Fc secondary antibody was performed to detect cells bound by the Fc fusion proteins. Cells were incubated with an anti-FLAG antibody (Sigma-Aldrich, St. Louis, Mo.) as a positive control and with an anti-PE antibody as a negative control. The cells were analyzed on a FACSCalibur instrument (BD Biosciences, San Jose, Calif.) and the data was processed using FlowJo software.

[2] = test system: RSPO3-induced β-catenin signaling; assay: TOPflash 6xTCF-luciferase reporter assay in HEK-293 cells with WNT3a and RSPO3; format: cell-based, human
Procedure: HEK-293 cells were transfected with a 6×TCF-luciferase reporter vector (TOPflash, Millipore, Billerica, Mass.). After 24-48 hrs, the transfected HEK-293 cells were incubated with a combination of WNT3a (5 ng/ml) and human RSPO3 (10 ng/ml, R&D BioSystems, Minneapolis, Minn.) in the presence of anti-RSPO3 antibodies 131R002 and 131R003. Antibodies 131R002 and 131R003 were added to the cells in 4-fold serial dilutions from 20 μg/ml to 0.02 μg/ml. As controls, cells were incubated with a combination of WNT3a and RSPO3, WNT3a only, RSPO3 only, or with no addition. The cells were incubated for 16 hours and luciferase activity was measured using Steady-Glo® Luciferase Assay System according to the manufacturer's instructions (Promega, Madison, Wis.).
HEK-293 cells were transfected with a 6×TCF-luciferase reporter vector (TOPflash, Millipore, Billerica, Mass.). After 24-48 hrs, the transfected HEK-293 cells were incubated with a combination of WNT3a and human RSPO3 in the presence of anti-RSPO3 antibodies 131R003, 131R003 CDR1 variant and 131R003 CDR3 variant. 131R003, 131R003 CDR1 variant, and 131R003 CDR3 variant were added to the cells in 5-fold serial dilutions from 20 μg/ml to 0.006 μg/ml. As controls, cells were incubated with a combination of WNT3a and RSPO3, WNT3a only, RSPO3 only, a control antibody, or with no addition. The cells were incubated for 16 hours and luciferase activity was measured using Steady-Glo® Luciferase Assay System according to the manufacturer's instructions (Promega, Madison, Wis.).
HEK-293 cells were transfected with a 6×TCF-luciferase reporter vector (TOPflash, Millipore, Billerica, Mass.). After 24-48 hrs, the transfected HEK-293 cells were incubated with a combination of WNT3a conditioned medium (5 ng/ml) and human RSPO3 (10 ng/ml, R&D BioSystems) in the presence of anti-RSPO3 antibodies 131R002, 131R006B, or 131R007. Antibodies 131R002, 131R006 or 131R007 were added to the cells in 5-fold serial dilutions from 20 μg/ml to 0.0064 μg/ml. As controls, cells were incubated with WNT3a conditioned medium alone, a combination of WNT3a conditioned medium and human RSPO3, or with no addition to cells. The cells were incubated for 16 hours and luciferase activity was measured using Steady-Glo® Luciferase Assay System according to the manufacturer's instructions (Promega, Madison, Wis.).
HEK-293 cells were transfected with a 6×TCF-luciferase reporter vector (TOPflash, Millipore, Billerica, Mass.). […] The cells were incubated for 16 hours and luciferase activity was measured using Steady-Glo® Luciferase Assay System according to the manufacturer's instructions (Promega, Madison, Wis.).

| Molecule | binding to LGR5 expressed on the surface of HEK-293 cells (human LGR5) | further results |
| --- | --- | --- |
| N.N.O=C([O-])C1(C(=O)[O-])CCC1.[Pt+2] [carboplatin, reference compound] |  | expression of gene sets characteristic of normal stem cells or cancer stem cells [1]: did not have this effect on gene expression |
| RSPO3: full-length human RSPO3 ligated in-frame to a human Fc region (protein) QNASRGRRQRRMHPNVSQGCQGGCATCSDYNGCLSCKPRLFFALERIGMKQIGVCLSSCPSGYYGTRYPDINKCTKCKADCDTCFNKNFCTKCKSGFYLHLGKCLDNCPEGLEANNHTMECVSIVHCEVSEWNPWSPCTKKGKTCGFKRGTETRVREIIQHPSAKGNLCPPTNETRKCTVQRKKCQKGERGKKGRERKRKKPNKGESKEAIPDSKSLESSKEIPEQRENKQQQKKRKVQDKQKSVSVSTVH | bound to LGR5 |  |
| RSPO2: full-length human RSPO2 ligated in-frame to a human Fc region (protein, left off: a dimerising Fc or GST, full-length human RSPO2 ligated in-frame to a human Fc region) QGNRWRRSKRASYVSNPICKGCLSCSKDNGCSRCQQKLFFFLRREGMRQYGECLHSCPSGYYGHRAPDMNRCARCRIENCDSCFSKDFCTKCKVGFYLHRGRCFDECPDGFAPLEETMECVEGCEVGHWSEWGTCSRNNRTCGFKWGLETRTRQIVKKPVKDTIPCPTIAESRRCKMTMRHCPGGKRTPKAKEKRNKKKKRKLIERAQEQHSVFLATDRANQ | bound to LGR5 |  |
| 131R003: anti-RSPO3 antibody from a mammalian cell antibody library; heavy chain variable region SEQ ID NO:16, light chain variable region SEQ ID NO:17 (antibody, V domains shown, 131R003 Heavy chain variable region; 131R002/131R003 Light chain variable region) VH: QVQLKQSGPELVKPGASVKISCKASGYTFTDYSIHWVKQNHGKSLDWIGYIYPSNGDSGYNQKFKNRATLTVDTSYSTAYLEVRRLTFEDSAVYYCATYFANYFDYWGQGTTLTVSSAST VL: DIVLTQSPASLAVSLGQRATISCKASQSVDYDGDSYMNWYQQKPGQPPKLLIYAASNLESGIPARFSGSGSGTDFTLNIHPVEEEDAATYYCQQSNEDPLTFGAGTKLELKR |  | RSPO3-induced β-catenin signaling ([2]; WNT3a 5 ng/ml + RSPO3 10 ng/ml, antibody 20 to 0.02 μg/ml, FIG. 3): reduced RSPO3-induced β-catenin signaling in a dose-dependent manner |
| h131R010: humanized 131R003 variant, IgG1; heavy chain variable region SEQ ID NO:44, light chain variable region SEQ ID NO:86; ATCC PTA-120420 and PTA-120421 (antibody, V domains shown, Humanized 131R005/131R007/131R008/ 131R010/131R011 Heavy chain variable region; Humanized 131R010/131R011 Light chain variable region, humanized 131R003 variant, IgG1; ATCC PTA-120420 and PTA-120421) VH: QVQLVQSGAEVKKPGASVKVSCKASGYTFTDYSIHWVRQAPGQGLEWIGYIYPSNGDSGYNQKFKNRVTMTRDTSTSTAYMELSRLRSEDTAVYYCATYFANNFDYWGQGTTLTVSS VL: DIQMTQSPSSLSASVGDRVTITCKASQSVDYDGDSYMNWYQQKPGKAPKLLIYAASNLESGVPSRFSGSGSGTDFTLTISPVQAEDFATYYCQQSNEDPLTFGAGTKLELKR |  | WNT3a/RSPO3-induced β-catenin signaling ([2]; WNT3a conditioned medium 5 ng/ml + human RSPO3 2 ng/ml, antibody 20 to 0.0064 μg/ml, FIG. 13): reduced WNT3a/RSPO3-induced β-catenin signaling in a dose-dependent manner and to a similar extent as h131R007 |
| RSPO1: full-length human RSPO1 ligated in-frame to a human Fc region (protein, left off: a dimerising Fc or GST, full-length human RSPO1 ligated in-frame to a human Fc region) SRGIKGKRQRRISAEGSQACAKGCELCSEVNGCLKCSPKLFILLERNDIRQVGVCLPSCPPGYFDARNPDMNKCIKCKIEHCEACFSHNFCTKCKEGLYLHKGRCYPACPEGSSAANGTMECSSPAQCEMSEWSPWGPCSKKQQLCGFRRGSEERTRRVLHAPVGDHAACSDTKETRRCTVRRVPCPEGQKRRKGGQGRRENANRNLARKESKEAGAGSRRRKGQQQQQQQGTVGPLTSAGPA | bound to LGR5 |  |
